Measurements taken from article PMC9371724 (2022).

T1: HA69 peptide on HLA DQB1*06:02/DQA1*01:02 (DQ0602) (human)
T1 peptide: AMERNAGSGIIISDT

T2: hemagglutinin (HA) of pandemic 2009 H1N1 (pHA, HA69) peptide on HLA-DQA1*01:02 / HLA-DQB1*06:02 (human)
T2 peptide: AMERNAGSGIIISDT

T3: hemagglutinin (HA) of pandemic 2009 H1N1 (pHA, HA69) peptide on HLA-DQA1*01:02 / HLA-DQB1*06:02 (human)
T3 peptide: AMERNAGSGIIISDT

B1: TCR CIVRSQGGSYIPTF / CATSRDTMTSIGTDTQYF (TCR)
alpha TRAV26-1 TRAJ6 CDR3: CIVRSQGGSYIPTF
beta TRBV15 TRBJ2-3 CDR3: CATSRDTMTSIGTDTQYF
B2: TCR CAGRPNSGGSNYKLTF / CASSDQAAWAGYTF (TCR)
alpha TRAV35 TRAJ53 CDR3: CAGRPNSGGSNYKLTF
beta TRBV19 TRBJ1-2 CDR3: CASSDQAAWAGYTF
B3: …-1 (TCR)
alpha TRAV8-6 TRAJ24 CDR3: CAVSEDDSWGKLQF
beta TRBV29-1 TRBJ1-6 CDR3: CSVARDRNSPLHF
B4: TCR CIVRAGGTSYGKLTF / CAWSPLAGTGAPQPQHF (TCR)
alpha TRAV26-1 TRAJ52 CDR3: CIVRAGGTSYGKLTF
beta TRBV30 TRBJ1-5 CDR3: CAWSPLAGTGAPQPQHF
B5: TCR CAGSPSQGGSEKLVF / CSARPLGTSGRDEQFF (TCR)
alpha TRAV35 TRAJ57 CDR3: CAGSPSQGGSEKLVF
beta TRBV20-1 TRBJ2-1 CDR3: CSARPLGTSGRDEQFF
B6: TCR CAAVGMNGGAQKLVF / CASRSQGWGTEAFF (TCR)
alpha TRAV13-1 TRAJ54 CDR3: CAAVGMNGGAQKLVF
beta TRBV19 TRBJ1-1 CDR3: CASRSQGWGTEAFF
B7: TCR CAASRGTSYDKVIF / CSVDRYYNEQFF (TCR)
alpha TRAV13-1 TRAJ50 CDR3: CAASRGTSYDKVIF
beta TRBV29-1 TRBJ2-1 CDR3: CSVDRYYNEQFF
B8: TCR CAGRPNSGGSNYKLTF / CASSGQQALYGYTF (TCR)
alpha TRAV35 TRAJ53 CDR3: CAGRPNSGGSNYKLTF
beta TRBV19 TRBJ1-2 CDR3: CASSGQQALYGYTF
B9: TCR CILRDVLSNFGNEKLTF / CASSQASVSVDTQYF (TCR)
alpha TRAV26-2 TRAJ48 CDR3: CILRDVLSNFGNEKLTF
beta TRBV4-2 TRBJ2-3 CDR3: CASSQASVSVDTQYF
B10: …-1 (TCR)
alpha TRAV8-3 TRAJ24 CDR3: CAVGLTDSWGKLQF
beta TRBV19 TRBJ2-1 CDR3: CASSFSKNGNSYNEQFF
B11: TCR CAATDTGNQFYF / CASSQHGQGNQPQHF (TCR)
alpha TRAV13-1 TRAJ49 CDR3: CAATDTGNQFYF
beta TRBV7-8 TRBJ1-5 CDR3: CASSQHGQGNQPQHF
B12: TCR CAVSERGAQKLVF / CSAPSGGGRASGANVLTF (TCR)
alpha TRAV8-6 TRAJ54 CDR3: CAVSERGAQKLVF
beta TRBV20-1 TRBJ2-6 CDR3: CSAPSGGGRASGANVLTF
B13: TCR861 (TCR)
alpha TRAV13-1 TRAJ50 CDR3: CAASRGTSYDKVIF
beta TRBV29-1 TRBJ2-1 CDR3: CSVRSLYNEQFF
B14: TCR CAMREGHIQGAQKLVF / CASSSGNLNTEAFF (TCR)
alpha TRAV14/DV4 TRAJ54 CDR3: CAMREGHIQGAQKLVF
beta TRBV19 TRBJ1-1 CDR3: CASSSGNLNTEAFF
B15: TCR CAVNRADSWGKLQF / CASSIDKTGHSNQPQHF (TCR)
alpha TRAV12-2 TRAJ24 CDR3: CAVNRADSWGKLQF
beta TRBV19 TRBJ1-5 CDR3: CASSIDKTGHSNQPQHF
B16: TCR108 (TCR)
alpha TRAV8-3 TRAJ24 CDR3: CAVGFTDSWGKLQF
beta TRBV19 TRBJ2-1 CDR3: CASSIDPSGNHYNEQFF
B17: TCR CAASRGTSYDKVIF / CSATGLYNEQFF (TCR)
alpha TRAV13-1 TRAJ50 CDR3: CAASRGTSYDKVIF
beta TRBV20-1 TRBJ2-1 CDR3: CSATGLYNEQFF
B18: TCR CALTMKTSYDKVIF / CASSIGTSGPDTQYF (TCR)
alpha TRAV9-2 TRAJ50 CDR3: CALTMKTSYDKVIF
beta TRBV19 TRBJ2-3 CDR3: CASSIGTSGPDTQYF
B19: TCR CAGKENSGGSNYKLTF / CASRVQGARAEAFF (TCR)
alpha TRAV25 TRAJ53 CDR3: CAGKENSGGSNYKLTF
beta TRBV19 TRBJ1-1 CDR3: CASRVQGARAEAFF
B20: TCR CAVEETSGSRLTF / CASSQPDTRADTQYF (TCR)
alpha TRAV39 TRAJ58 CDR3: CAVEETSGSRLTF
beta TRBV4-2 TRBJ2-3 CDR3: CASSQPDTRADTQYF
B21: TCR CAVGSTDSWGKLQF / CASRLDPTGHMNTEAFF (TCR)
alpha TRAV8-3 TRAJ24 CDR3: CAVGSTDSWGKLQF
beta TRBV19 TRBJ1-1 CDR3: CASRLDPTGHMNTEAFF
B22: TCR CAAADTGNQFYF / CASSSHGQGNQPQHF (TCR)
alpha TRAV13-1 TRAJ49 CDR3: CAAADTGNQFYF
beta TRBV7-8 TRBJ1-5 CDR3: CASSSHGQGNQPQHF
B23: TCR275 (TCR)
alpha TRAV13-1 TRAJ43 CDR3: CAANNNDMRF
beta TRBV4-2 TRBJ1-2 CDR3: CASSQETQGRNYGYTF
B24: TCR846 (TCR)
alpha TRAV8-6 TRAJ54 CDR3: CAVSESAQGAQKLVF
beta TRBV19 TRBJ2-3 CDR3: CASSRPGLNTDTQYF
B25: TCR755 (TCR)
alpha TRAV12-3 TRAJ8 CDR3: CAMSETRFQKLVF
beta TRBV19 TRBJ2-7 CDR3: CASSSTGGNYEQYF
B26: TCR CAGRPTSGGSNYKLTF / CASSGGQAYYGYTF (TCR)
alpha TRAV35 TRAJ53 CDR3: CAGRPTSGGSNYKLTF
beta TRBV19 TRBJ1-2 CDR3: CASSGGQAYYGYTF
B27: TCR285 (TCR)
alpha TRAV13-1 TRAJ49 CDR3: CAATPGRTGNQFYF
beta TRBV4-2 TRBJ2-5 CDR3: CASSQGQGDETQYF

Target: T1, HA69 peptide on HLA …
Experiment: activation reporter or marker

Binder	binding result
B1	recognises
B2	recognises
B3	no recognition
B4	recognises
B5	no recognition
B6	recognises
B7	recognises
B8	recognises
B9	recognises
B10	no recognition
B11	recognises
B12	recognises
B13	recognises
B14	recognises
B15	recognises
B16	recognises
B17	recognises
B18	recognises
B19	recognises
B20	recognises
B21	recognises
B22	recognises
B23	recognises
B24	recognises
B25	recognises
B26	recognises
B27	recognises

Target: T2, hemagglutinin (HA) of pandemic 2009 …
Experiment: activation reporter or marker

Binder	binding result
B5	no recognition

Target: T3, hemagglutinin (HA) of pandemic 2009 …
Experiment: activation reporter or marker

Binder	binding result
B23	recognises
